For this experiment, the target named is T1, 6His-FrzCD (M. xanthus, UniProt P43500 1-417).
T1 construct: FrzCD, cytoplasmic methyl-accepting chemotaxis protein of the Frz system, Myxococcus xanthus; also called cytoplasmic MCP of the Frz system; source: E. coli BL21(DE3); in lysate (co-purification) and purified on NiNTA resin (BLi)
T1 sequence (looked up): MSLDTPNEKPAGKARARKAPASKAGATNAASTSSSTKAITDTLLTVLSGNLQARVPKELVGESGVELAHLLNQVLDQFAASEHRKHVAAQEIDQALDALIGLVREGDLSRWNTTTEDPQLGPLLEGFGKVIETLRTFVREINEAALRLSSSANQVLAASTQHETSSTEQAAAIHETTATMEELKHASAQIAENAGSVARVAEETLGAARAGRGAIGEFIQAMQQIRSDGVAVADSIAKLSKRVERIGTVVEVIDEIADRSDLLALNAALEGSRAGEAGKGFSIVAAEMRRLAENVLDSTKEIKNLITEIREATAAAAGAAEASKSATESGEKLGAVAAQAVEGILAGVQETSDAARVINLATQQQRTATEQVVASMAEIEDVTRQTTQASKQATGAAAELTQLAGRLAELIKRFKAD
The experiment is described as follows: BLI; BLItz, 25°C; 6His-tagged ligand immobilised on Ni-NTA biosensors at 4 μM; GST-FrzB as analyte at 0.2 to 20 μM; Tris HCl 50 mM pH8, NaCl 300 mM; global 1:1 fit; double reference subtraction. The note with it: both partners purified. For orientation: In BLI a coated tip is dipped into the sample, and binding shifts an interference pattern.

B1: GST-FrzB (natural protein, M. xanthus, UniProt P43499 1-112, looked up)
chain: MDLLFFDIGATLYGTDASQVLRIDRALPEDLTLAELGLPHRGNRAIVFDTPEGEAHLKVDAVHGVRSIPVNSLRRMPPTAGAAAYAVGVCLEEARTVLLIDLVETARTQGRH
notes: FrzB, CheW-like protein of the Frz chemosensory system, Myxococcus xanthus, Uniprot P43499; also called divergent CheW; source: E. coli BL21(DE3)
What is called Kd is the constant that tells how readily two partners part at equilibrium. High values mean a looser complex, low ones a tighter complex. In turn, B1 came in with a Kd of 700 nM. This lies in the sub-micromolar range.

The values above are taken from publication PMC6952110, “A divergent CheW confers plasticity to nucleoid-associated chemosensory arrays” (PLoS Genetics, 2019).
